# Patent publication CN117384291A (WUHAN ABCLONAL INC, dated 2024)
# B1: 抗人SALL4兔单克隆抗体 (antibody, V domains shown)
# VH: QSLEESGGRLVTPGGSLTLTCTVSGFSLSSNSITWVRQAPGKGLEWIGTMNIDNSTYYMSWAKGRLTISKTSTTVTLKMTSLTTEDTATYFCARIAVVSNTDIWGPGTLVTVSF
# VL: AQALTQTPSSVSAAVGGTVTISCQSSQNVYDANALSWYQQKPGQPPKRLIYSASTLASGVPSRFKGSGSGTQFTLTISGVQCDDAASYYCAGVYYGKIGFGGGTEVVVKG
# notes: also called 试验例2制备的抗人SALL4兔单克隆抗体; 识别人SALL4的兔单克隆抗体
# Molecular target: T1, 人SALL4蛋白 (human, UniProt Q9UJQ4 1-1053, limits assumed)
# T1 construct: Endogenous SALL4 in fixed tissue sections; also called human SALL4
# T1 sequence (looked up): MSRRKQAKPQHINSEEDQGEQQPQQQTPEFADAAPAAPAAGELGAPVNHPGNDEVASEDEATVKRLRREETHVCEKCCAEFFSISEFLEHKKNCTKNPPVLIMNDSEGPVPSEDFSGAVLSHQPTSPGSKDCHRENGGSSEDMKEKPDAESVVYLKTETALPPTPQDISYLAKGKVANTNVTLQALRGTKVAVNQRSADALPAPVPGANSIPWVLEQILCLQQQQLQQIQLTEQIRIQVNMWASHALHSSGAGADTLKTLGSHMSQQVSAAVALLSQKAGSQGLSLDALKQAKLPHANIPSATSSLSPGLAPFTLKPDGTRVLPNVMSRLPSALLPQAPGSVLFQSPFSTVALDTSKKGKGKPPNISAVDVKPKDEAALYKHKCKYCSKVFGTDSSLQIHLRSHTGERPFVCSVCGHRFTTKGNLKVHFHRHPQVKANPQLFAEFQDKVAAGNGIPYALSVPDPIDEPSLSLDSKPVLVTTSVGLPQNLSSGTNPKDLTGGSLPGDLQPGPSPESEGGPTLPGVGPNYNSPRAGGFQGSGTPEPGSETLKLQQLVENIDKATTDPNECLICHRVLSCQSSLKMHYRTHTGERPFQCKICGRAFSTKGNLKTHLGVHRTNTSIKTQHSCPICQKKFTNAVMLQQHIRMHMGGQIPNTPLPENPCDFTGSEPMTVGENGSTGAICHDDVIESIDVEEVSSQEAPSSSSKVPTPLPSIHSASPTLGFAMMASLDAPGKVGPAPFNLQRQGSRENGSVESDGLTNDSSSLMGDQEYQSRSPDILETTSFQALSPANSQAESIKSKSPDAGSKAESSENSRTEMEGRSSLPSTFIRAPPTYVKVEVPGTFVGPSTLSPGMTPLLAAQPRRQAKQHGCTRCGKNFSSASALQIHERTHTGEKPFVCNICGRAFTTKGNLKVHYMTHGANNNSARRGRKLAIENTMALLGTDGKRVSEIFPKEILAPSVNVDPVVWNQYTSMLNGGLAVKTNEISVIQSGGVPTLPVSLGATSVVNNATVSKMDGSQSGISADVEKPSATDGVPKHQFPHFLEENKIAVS
# Experiment: IHC on paraffin sections of human seminoma, primary antibody 1:100
binder,measurement,value
B1,binding result,binds
